Article PMC3823766, “Paralogs hnRNP L and hnRNP LL Exhibit Overlapping but Distinct RNA Binding Constraints”

T1: FLAG-hnRNP LL (UniProt Q8WVV9 1-542)
T1 sequence: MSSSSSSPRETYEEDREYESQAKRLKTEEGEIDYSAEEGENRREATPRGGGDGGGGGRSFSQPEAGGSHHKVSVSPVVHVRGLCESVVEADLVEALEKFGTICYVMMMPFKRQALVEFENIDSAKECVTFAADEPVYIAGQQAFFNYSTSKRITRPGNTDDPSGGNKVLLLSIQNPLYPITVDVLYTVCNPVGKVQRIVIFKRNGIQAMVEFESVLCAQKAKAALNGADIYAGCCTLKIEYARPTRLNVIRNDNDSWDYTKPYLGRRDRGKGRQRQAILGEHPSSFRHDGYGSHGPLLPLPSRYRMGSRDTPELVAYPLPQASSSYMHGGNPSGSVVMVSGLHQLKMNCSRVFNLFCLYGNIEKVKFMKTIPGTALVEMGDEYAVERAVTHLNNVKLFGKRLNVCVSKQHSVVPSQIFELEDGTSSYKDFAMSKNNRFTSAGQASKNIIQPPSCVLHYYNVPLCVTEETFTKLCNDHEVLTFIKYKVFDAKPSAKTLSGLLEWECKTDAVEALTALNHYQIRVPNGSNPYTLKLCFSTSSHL

T2: GST-hnRNP L (UniProt P14866 1-589)
T2 sequence: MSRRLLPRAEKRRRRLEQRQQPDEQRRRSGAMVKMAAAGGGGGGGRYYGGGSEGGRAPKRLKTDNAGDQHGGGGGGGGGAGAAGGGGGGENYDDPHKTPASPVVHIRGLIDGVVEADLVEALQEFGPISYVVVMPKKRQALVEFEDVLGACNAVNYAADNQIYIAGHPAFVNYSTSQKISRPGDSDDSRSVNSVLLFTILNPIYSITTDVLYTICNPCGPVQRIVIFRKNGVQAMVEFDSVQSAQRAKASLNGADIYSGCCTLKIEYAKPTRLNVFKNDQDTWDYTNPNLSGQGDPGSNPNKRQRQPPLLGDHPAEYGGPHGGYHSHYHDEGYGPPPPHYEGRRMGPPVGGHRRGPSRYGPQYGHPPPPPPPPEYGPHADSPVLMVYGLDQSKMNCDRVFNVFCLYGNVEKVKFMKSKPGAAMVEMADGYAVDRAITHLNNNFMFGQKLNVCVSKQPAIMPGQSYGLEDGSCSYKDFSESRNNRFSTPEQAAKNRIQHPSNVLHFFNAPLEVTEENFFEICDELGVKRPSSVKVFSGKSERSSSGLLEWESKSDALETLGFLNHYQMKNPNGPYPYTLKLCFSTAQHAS


Tests used:
Assay in all cases: EMSA; EMSA: ~1 fmol 32P RNA (0.1 nM), 4.5% native PAGE; binding buffer as in cited ref 9, not given; BC50 values printed only in figures
FLAG-hnRNP LL [1] = biological target: T1, FLAG-hnRNP LL; details: protein: recombinant; tags: N-terminal FLAG; label: 32P-CTP body label
GST-hnRNP L [2] = biological target: T2, GST-hnRNP L; details: protein: recombinant; label: 32P-CTP body label
GST-hnRNP L [3] = biological target: T2, GST-hnRNP L; details: protein: recombinant; label: 32P-CTP body label; remark: listed apart in the source
FLAG-hnRNP LL [4] = biological target: T1, FLAG-hnRNP LL; details: protein: recombinant; tags: N-terminal FLAG; label: 32P-CTP body label; remark: listed apart in the source
FLAG-hnRNP LL [5] = biological target: T1, FLAG-hnRNP LL; details: protein: recombinant; tags: N-terminal FLAG; label: 32P-CTP body label; remark: listed apart in the source
FLAG-hnRNP LL [6] = biological target: T1, FLAG-hnRNP LL; details: protein: recombinant; tags: N-terminal FLAG; label: 32P-CTP body label; remark: listed apart in the source
GST-hnRNP L [7] = biological target: T2, GST-hnRNP L; details: protein: recombinant; label: 32P-CTP body label; remark: listed apart in the source

Binder | binding result (GST-hnRNP L [3]) | binding signal (GST-hnRNP L [7]) [fold weaker than ESS1] | binding result (FLAG-hnRNP LL [5]) | other results
CAccCA (ssRNA) RNA: GAUCCCCCACCCAAGAUCUCCCACCCAAGAUCUCCCACCCAAGAUCUCCCACCCAAGAUCU | – | – | – | binding signal (FLAG-hnRNP LL [1]): 5 fold weaker than CACACA; binding signal (GST-hnRNP L [2]): 15 fold weaker than CACACA
CAcCA (N=1) (ssRNA) RNA: GAUCCUCACCACCAUAGAUCUUCACCACCAUAGAUCUUCACCACCAUAGAUCUUCACCACCAUAGAUCU | binds | – | – | binding signal (FLAG-hnRNP LL [4]): > 4 fold weaker than CACACA (at least)
CUUACCUACUCACACCACUGCAUUCUCACCCGCAAGCACC (ssRNA) [ESS1 wild type] | – | – | – | Kd (FLAG-hnRNP LL [5]): ~2 nM; Kd (GST-hnRNP L [3]): ~2 nM
CUUACCUACUCACACCACUGCAUUCUCACCCGGAAGCACC (ssRNA) [ESS1 CA6 mutant (CA to GA)] | – | ~10 | – | binding signal (FLAG-hnRNP LL [6]): > 5 fold weaker than ESS1
CUUACCUACUCACACCACUGCAUUCUCACCCGCAAGUACC (ssRNA) [ESS1 CA7 mutant (CA to TA)] | binds | – | – | binding signal (FLAG-hnRNP LL [6]): > 5 fold weaker than ESS1
CUUACCUACUCACACCACUGGAUUCUCACCCGCAAGCACC (ssRNA) [ESS1 CA4 mutant (CA to GA)] | – | ~2 | binds | –
CUUACCUACUUACACCACUGCAUUCUCACCCGCAAGCACC (ssRNA) [ESS1 CA1 mutant (CA to TA)] | – | – | binds | –
CUUACCUACUCACACGACUGCAUUCUCACCCGCAAGCACC (ssRNA) [ESS1 CA3 mutant (CA to GA)] | – | ~4 | binds | –
CUUACCUACUCACACCACUGCAUUCUGACCCGCAAGCACC (ssRNA) [ESS1 CA5 mutant (CA to GA)] | – | – | binds | –
CUUACCUACUCAGACCACUGCAUUCUCACCCGCAAGCACC (ssRNA) [ESS1 CA2 mutant (CA to GA)] | – | ~2 | binds | –
CAuaCA (N=2) (ssRNA) RNA: GAUCCUACAUACAUAGAUCUUACAUACAUAGAUCUUACAUACAUAGAUCUUACAUACAUAGAUCU | binds | – | binds | –
CA spacer N=3 (ssRNA) RNA: GAUCCUACAUUACAUAGAUCUUACAUUACAUAGAUCUUACAUUACAUAGAUCUUACAUUACAUAGAUCU | binds | – | – | –
CACACA x4 (N=2 ca spacer) (ssRNA) RNA: GAUCCUUCACACAUUAGAUCUUUCACACAUUAGAUCUUUCACACAUUAGAUCUUUCACACAUUAGAUCU | binds | – | binds | –
